Literature values in PMC5911825.

Molecular target: Cys797 (UniProt position 797, LMPFGCLLDYV)
Assay: other (described only as 'titration experiments')
Conditions: wild-type EGFR; ligand state not stated

Epidermal growth factor receptor (EGFR), wild type (Homo sapiens)
pKa: 5.5
